Laboratory results from publication PMC2593702, “Purification, crystallization and X-ray structures of the two manganese superoxide dismutases from Caenorhabditis elegans” (Acta Crystallographica Section F, 2008).

Target: the molecule itself
Experiment: SEC; gel-filtration chromatography of the pure proteins; Sephacryl S-200, 10 mM Tris-HCl pH 8.0, 0.15 M NaCl, 0.8 ml/min; results not shown

B1: Caenorhabditis elegans manganese superoxide dismutase MnSOD-2 (enzyme)
chain: MKHSLPDLPYDYADLEPVISHEIMQLHHQKHHATYVNNLNQIEEKLHEAVSKGNVKEAIALQPALKFNGGGHINHSIFWTNLAKDGGEPSAELLTAIKSDFGSLDNLQKQLSASTVAVQGSGWGWLGYCPKGKILKVATCANQDPLEATTGLVPLFGIDVWEHAYYLQYKNVRPDYVNAIWKIANWKNVSERFAKAQQ
notes: N-terminal methionine of the expression construct, retained in the purified protein by mass spectrometry; Superoxide dismutase [Mn]; Expressed without a histidine tag; Cloning is as in Hunter et al., 1997
stoichiometry N: 4

B2: Caenorhabditis elegans manganese superoxide dismutase MnSOD-3 (enzyme)
chain: MKHTLPDLPFDYADLEPVISHEIMQLHHQKHHATYVNNLNQIEEKLHEAVSKGNLKEAIALQPALKFNGGGHINHSIFWTNLAKDGGEPSKELMDTIKRDFGSLDNLQKRLSDITIAVQGSGWGWLGYCKKDKILKIATCANQDPLEGMVPLFGIDVWEHAYYLQYKNVRPDYVHAIWKIANWKNISERFANARQ
notes: as for B1
stoichiometry N: 4
